Results reported in patent US20240400708A1.

Molecular target: feline FcRn complex (FcRn-α subunit and β-microglobulin), biotin labeled (feline)
Test: SPR, pH 6

| Binder | Kd |
| --- | --- |
| feline IgG1a H436G (antibody, part only; not given: Variable domains, not shown: another chain or arm of the molecule) constant: ASTTAPSVFPLAPSCGTTSGATVALACLVLGYFPEPVTVSWNSGALTSGVHTFPAVLQASGLYSLSSMVTVPSSRWLSDTFTCNVAHPPSNTKVDKTVRKTDHPPGPKPCDCPKCPPPEMLGGPSIFIFPPKPKDTLSISRTPEVTCLVVDLGPDDSDVQITWFVDNTQVYTAKTSPREEQFNSTYRVVSVLPILHQDWLKGKEFKCKVNSKSLPSPIERTISKAKGQPHEPQVYVLPPAQEELSRNKVSVTCLIKSFHPPDIAVEWEITGQPEPENNYRTTPPQLDSDGTYFVYSKLSVDRSHWQRGNTYTCSVSHEALHSHGTQKSLTQSPGK | 10.9 nM |
| feline IgG1a T250V (antibody, part only; not given: Variable domains, not shown: another chain or arm of the molecule) constant: ASTTAPSVFPLAPSCGTTSGATVALACLVLGYFPEPVTVSWNSGALTSGVHTFPAVLQASGLYSLSSMVTVPSSRWLSDTFTCNVAHPPSNTKVDKTVRKTDHPPGPKPCDCPKCPPPEMLGGPSIFIFPPKPKDVLSISRTPEVTCLVVDLGPDDSDVQITWFVDNTQVYTAKTSPREEQFNSTYRVVSVLPILHQDWLKGKEFKCKVNSKSLPSPIERTISKAKGQPHEPQVYVLPPAQEELSRNKVSVTCLIKSFHPPDIAVEWEITGQPEPENNYRTTPPQLDSDGTYFVYSKLSVDRSHWQRGNTYTCSVSHEALHSHHTQKSLTQSPGK | 6.87 nM |
| feline IgG1a H436M (antibody, part only; not given: Variable domains, not shown: another chain or arm of the molecule) constant: ASTTAPSVFPLAPSCGTTSGATVALACLVLGYFPEPVTVSWNSGALTSGVHTFPAVLQASGLYSLSSMVTVPSSRWLSDTFTCNVAHPPSNTKVDKTVRKTDHPPGPKPCDCPKCPPPEMLGGPSIFIFPPKPKDTLSISRTPEVTCLVVDLGPDDSDVQITWFVDNTQVYTAKTSPREEQFNSTYRVVSVLPILHQDWLKGKEFKCKVNSKSLPSPIERTISKAKGQPHEPQVYVLPPAQEELSRNKVSVTCLIKSFHPPDIAVEWEITGQPEPENNYRTTPPQLDSDGTYFVYSKLSVDRSHWQRGNTYTCSVSHEALHSHMTQKSLTQSPGK | 8.25 nM |
| feline IgG1a H436K (antibody, part only; not given: Variable domains, not shown: another chain or arm of the molecule) constant: ASTTAPSVFPLAPSCGTTSGATVALACLVLGYFPEPVTVSWNSGALTSGVHTFPAVLQASGLYSLSSMVTVPSSRWLSDTFTCNVAHPPSNTKVDKTVRKTDHPPGPKPCDCPKCPPPEMLGGPSIFIFPPKPKDTLSISRTPEVTCLVVDLGPDDSDVQITWFVDNTQVYTAKTSPREEQFNSTYRVVSVLPILHQDWLKGKEFKCKVNSKSLPSPIERTISKAKGQPHEPQVYVLPPAQEELSRNKVSVTCLIKSFHPPDIAVEWEITGQPEPENNYRTTPPQLDSDGTYFVYSKLSVDRSHWQRGNTYTCSVSHEALHSHKTQKSLTQSPGK | 6.91 nM |
| feline IgG1a T437R (antibody, part only; not given: variable domains and light chain, not shown: another chain or arm of the molecule) constant: ASTTAPSVFPLAPSCGTTSGATVALACLVLGYFPEPVTVSWNSGALTSGVHTFPAVLQASGLYSLSSMVTVPSSRWLSDTFTCNVAHPPSNTKVDKTVRKTDHPPGPKPCDCPKCPPPEMLGGPSIFIFPPKPKDTLSISRTPEVTCLVVDLGPDDSDVQITWFVDNTQVYTAKTSPREEQFNSTYRVVSVLPILHQDWLKGKEFKCKVNSKSLPSPIERTISKAKGQPHEPQVYVLPPAQEELSRNKVSVTCLIKSFHPPDIAVEWEITGQPEPENNYRTTPPQLDSDGTYFVYSKLSVDRSHWQRGNTYTCSVSHEALHSHHRQKSLTQSPGK | 6.85 nM |
| feline IgG1a T437A (antibody, part only; not given: Variable domains, not shown: another chain or arm of the molecule) constant: ASTTAPSVFPLAPSCGTTSGATVALACLVLGYFPEPVTVSWNSGALTSGVHTFPAVLQASGLYSLSSMVTVPSSRWLSDTFTCNVAHPPSNTKVDKTVRKTDHPPGPKPCDCPKCPPPEMLGGPSIFIFPPKPKDTLSISRTPEVTCLVVDLGPDDSDVQITWFVDNTQVYTAKTSPREEQFNSTYRVVSVLPILHQDWLKGKEFKCKVNSKSLPSPIERTISKAKGQPHEPQVYVLPPAQEELSRNKVSVTCLIKSFHPPDIAVEWEITGQPEPENNYRTTPPQLDSDGTYFVYSKLSVDRSHWQRGNTYTCSVSHEALHSHHAQKSLTQSPGK | 8.79 nM |
| feline IgG1a Y285A (antibody, part only; not given: Variable domains, not shown: another chain or arm of the molecule) constant: ASTTAPSVFPLAPSCGTTSGATVALACLVLGYFPEPVTVSWNSGALTSGVHTFPAVLQASGLYSLSSMVTVPSSRWLSDTFTCNVAHPPSNTKVDKTVRKTDHPPGPKPCDCPKCPPPEMLGGPSIFIFPPKPKDTLSISRTPEVTCLVVDLGPDDSDVQITWFVDNTQVATAKTSPREEQFNSTYRVVSVLPILHQDWLKGKEFKCKVNSKSLPSPIERTISKAKGQPHEPQVYVLPPAQEELSRNKVSVTCLIKSFHPPDIAVEWEITGQPEPENNYRTTPPQLDSDGTYFVYSKLSVDRSHWQRGNTYTCSVSHEALHSHHTQKSLTQSPGK | 8.01 nM |

Stronger by Kd, values ahead:

| Kd | Binder |
| --- | --- |
| 6.58 nM | feline IgG1a L432S (antibody, part only; not given: Variable domains, not shown: another chain or arm of the molecule) constant: ASTTAPSVFPLAPSCGTTSGATVALACLVLGYFPEPVTVSWNSGALTSGVHTFPAVLQASGLYSLSSMVTVPSSRWLSDTFTCNVAHPPSNTKVDKTVRKTDHPPGPKPCDCPKCPPPEMLGGPSIFIFPPKPKDTLSISRTPEVTCLVVDLGPDDSDVQITWFVDNTQVYTAKTSPREEQFNSTYRVVSVLPILHQDWLKGKEFKCKVNSKSLPSPIERTISKAKGQPHEPQVYVLPPAQEELSRNKVSVTCLIKSFHPPDIAVEWEITGQPEPENNYRTTPPQLDSDGTYFVYSKLSVDRSHWQRGNTYTCSVSHEASHSHHTQKSLTQSPGK |
| 6.07 nM | feline IgG1a T250E (antibody, part only; not given: Variable domains, not shown: another chain or arm of the molecule) constant: ASTTAPSVFPLAPSCGTTSGATVALACLVLGYFPEPVTVSWNSGALTSGVHTFPAVLQASGLYSLSSMVTVPSSRWLSDTFTCNVAHPPSNTKVDKTVRKTDHPPGPKPCDCPKCPPPEMLGGPSIFIFPPKPKDELSISRTPEVTCLVVDLGPDDSDVQITWFVDNTQVYTAKTSPREEQFNSTYRVVSVLPILHQDWLKGKEFKCKVNSKSLPSPIERTISKAKGQPHEPQVYVLPPAQEELSRNKVSVTCLIKSFHPPDIAVEWEITGQPEPENNYRTTPPQLDSDGTYFVYSKLSVDRSHWQRGNTYTCSVSHEALHSHHTQKSLTQSPGK |
| 5.69 nM | feline IgG1a H436R (antibody, part only; not given: Variable domains, not shown: another chain or arm of the molecule) constant: ASTTAPSVFPLAPSCGTTSGATVALACLVLGYFPEPVTVSWNSGALTSGVHTFPAVLQASGLYSLSSMVTVPSSRWLSDTFTCNVAHPPSNTKVDKTVRKTDHPPGPKPCDCPKCPPPEMLGGPSIFIFPPKPKDTLSISRTPEVTCLVVDLGPDDSDVQITWFVDNTQVYTAKTSPREEQFNSTYRVVSVLPILHQDWLKGKEFKCKVNSKSLPSPIERTISKAKGQPHEPQVYVLPPAQEELSRNKVSVTCLIKSFHPPDIAVEWEITGQPEPENNYRTTPPQLDSDGTYFVYSKLSVDRSHWQRGNTYTCSVSHEALHSHRTQKSLTQSPGK |
| 5.21 nM | feline IgG1a P247V (antibody, part only; not given: Variable domains, not shown: another chain or arm of the molecule) constant: ASTTAPSVFPLAPSCGTTSGATVALACLVLGYFPEPVTVSWNSGALTSGVHTFPAVLQASGLYSLSSMVTVPSSRWLSDTFTCNVAHPPSNTKVDKTVRKTDHPPGPKPCDCPKCPPPEMLGGPSIFIFPPKVKDTLSISRTPEVTCLVVDLGPDDSDVQITWFVDNTQVYTAKTSPREEQFNSTYRVVSVLPILHQDWLKGKEFKCKVNSKSLPSPIERTISKAKGQPHEPQVYVLPPAQEELSRNKVSVTCLIKSFHPPDIAVEWEITGQPEPENNYRTTPPQLDSDGTYFVYSKLSVDRSHWQRGNTYTCSVSHEALHSHHTQKSLTQSPGK |
| 4.94 nM | feline IgG1a T250S (antibody, part only; not given: Variable domains, not shown: another chain or arm of the molecule) constant: ASTTAPSVFPLAPSCGTTSGATVALACLVLGYFPEPVTVSWNSGALTSGVHTFPAVLQASGLYSLSSMVTVPSSRWLSDTFTCNVAHPPSNTKVDKTVRKTDHPPGPKPCDCPKCPPPEMLGGPSIFIFPPKPKDSLSISRTPEVTCLVVDLGPDDSDVQITWFVDNTQVYTAKTSPREEQFNSTYRVVSVLPILHQDWLKGKEFKCKVNSKSLPSPIERTISKAKGQPHEPQVYVLPPAQEELSRNKVSVTCLIKSFHPPDIAVEWEITGQPEPENNYRTTPPQLDSDGTYFVYSKLSVDRSHWQRGNTYTCSVSHEALHSHHTQKSLTQSPGK |
| 4.72 nM | feline IgG1a P247L (antibody, part only; not given: Variable domains, not shown: another chain or arm of the molecule) constant: ASTTAPSVFPLAPSCGTTSGATVALACLVLGYFPEPVTVSWNSGALTSGVHTFPAVLQASGLYSLSSMVTVPSSRWLSDTFTCNVAHPPSNTKVDKTVRKTDHPPGPKPCDCPKCPPPEMLGGPSIFIFPPKLKDTLSISRTPEVTCLVVDLGPDDSDVQITWFVDNTQVYTAKTSPREEQFNSTYRVVSVLPILHQDWLKGKEFKCKVNSKSLPSPIERTISKAKGQPHEPQVYVLPPAQEELSRNKVSVTCLIKSFHPPDIAVEWEITGQPEPENNYRTTPPQLDSDGTYFVYSKLSVDRSHWQRGNTYTCSVSHEALHSHHTQKSLTQSPGK |
| 4.66 nM | feline IgG1a T250I (antibody, part only; not given: Variable domains, not shown: another chain or arm of the molecule) constant: ASTTAPSVFPLAPSCGTTSGATVALACLVLGYFPEPVTVSWNSGALTSGVHTFPAVLQASGLYSLSSMVTVPSSRWLSDTFTCNVAHPPSNTKVDKTVRKTDHPPGPKPCDCPKCPPPEMLGGPSIFIFPPKPKDILSISRTPEVTCLVVDLGPDDSDVQITWFVDNTQVYTAKTSPREEQFNSTYRVVSVLPILHQDWLKGKEFKCKVNSKSLPSPIERTISKAKGQPHEPQVYVLPPAQEELSRNKVSVTCLIKSFHPPDIAVEWEITGQPEPENNYRTTPPQLDSDGTYFVYSKLSVDRSHWQRGNTYTCSVSHEALHSHHTQKSLTQSPGK |
| 4.51 nM | feline IgG1a P247I (antibody, part only; not given: Variable domains, not shown: another chain or arm of the molecule) constant: ASTTAPSVFPLAPSCGTTSGATVALACLVLGYFPEPVTVSWNSGALTSGVHTFPAVLQASGLYSLSSMVTVPSSRWLSDTFTCNVAHPPSNTKVDKTVRKTDHPPGPKPCDCPKCPPPEMLGGPSIFIFPPKIKDTLSISRTPEVTCLVVDLGPDDSDVQITWFVDNTQVYTAKTSPREEQFNSTYRVVSVLPILHQDWLKGKEFKCKVNSKSLPSPIERTISKAKGQPHEPQVYVLPPAQEELSRNKVSVTCLIKSFHPPDIAVEWEITGQPEPENNYRTTPPQLDSDGTYFVYSKLSVDRSHWQRGNTYTCSVSHEALHSHHTQKSLTQSPGK |
| 4.35 nM | feline IgG1a T250Q (antibody, part only; not given: Variable domains, not shown: another chain or arm of the molecule) constant: ASTTAPSVFPLAPSCGTTSGATVALACLVLGYFPEPVTVSWNSGALTSGVHTFPAVLQASGLYSLSSMVTVPSSRWLSDTFTCNVAHPPSNTKVDKTVRKTDHPPGPKPCDCPKCPPPEMLGGPSIFIFPPKPKDQLSISRTPEVTCLVVDLGPDDSDVQITWFVDNTQVYTAKTSPREEQFNSTYRVVSVLPILHQDWLKGKEFKCKVNSKSLPSPIERTISKAKGQPHEPQVYVLPPAQEELSRNKVSVTCLIKSFHPPDIAVEWEITGQPEPENNYRTTPPQLDSDGTYFVYSKLSVDRSHWQRGNTYTCSVSHEALHSHHTQKSLTQSPGK |
